Source: FireProtDB (doi:10.1016/j.jmb.2008.02.039)

B1: Ribonuclease HII, O74035 (parent)
chain: MKIAGIDEAGRGPVIGPMVIAAVVVDENSLPKLEELKVRDSKKLTPKRREKLFNEILGVLDDYVILELPPDVIGSREGTLNEFEVENFAKALNSLKVKPDVIYADAADVDEERFARELGERLNFEAEVVAKHKADDIFPVVSAASILAKVTRDRAVEKLKEEYGEIGSGYPSDPRTRAFLENYYREHGEFPPIVRKGWKTLKKIAEKVESEKKAEERQATLDRYFRKV

Variants of: B1
Settings: Thermococcus kodakarensis (strain ATCC BAA-918 / JCM 12380 / KOD1), pH 9, CD, reversible: Yes, structure 1IO2, whole UniProt chain shown; for ddG of mutation (higher = less stable) / denaturant m value / denaturant midpoint (higher = more stable) / unfolding free energy: 50 °C, GdnHCl, Tris-HCl 20 mM; for Tm / change of melting temperature, mutant - wild type (higher = more stable): Thermal, Gly-NaOH 20 mM

Row | Variant | ddG of mutation (higher = less stable) [kcal/mol] | denaturant m value [kcal/mol/M] | denaturant midpoint (higher = more stable) [M] | unfolding free energy [kcal/mol] | Tm [°C] | change of melting temperature, mutant - wild type (higher = more stable) [°C]
1 | L92A | 2.87 | 6 | 1.33 | 8.01 | 78.9 | -5.6
2 | L147A | 2.61 | 6.19 | 1.38 | 8.53 |  | 
3 | I20A | 4.42 | 5.74 | 1.05 | 6.05 | 76.1 | -8.4
4 | I15A | 2.13 | 4.3 | 1.47 | 6.31 |  | 
5 | I102A | 4.04 | 5.9 | 1.12 | 6.62 | 73.8 | -10.7
6 | I6A |  |  |  |  | 79.3 | -5.2
7 | L118A | 5.26 | 5.9 | 0.9 | 5.31 | 70.8 | -13.7
8 | L33A |  |  |  |  | 72.6 | -11.9
9 | I56A | 3.97 | 5.35 | 1.13 | 6.05 | 75.8 | -8.7
